The source of these data is PMC6753193 (2019).

The target in the experiment is recombinant human PP1α (residues 7–300) (human, UniProt P62136 7-300). In words: SPR.

Where no end group is shown, it is not given here. [ ]: non-standard residue; d: D form. pS = N[C@@H](COP(=O)(O)O)C(=O)O

Sequence of recombinant human PP1α (residues 7–300) (P62136 7-300): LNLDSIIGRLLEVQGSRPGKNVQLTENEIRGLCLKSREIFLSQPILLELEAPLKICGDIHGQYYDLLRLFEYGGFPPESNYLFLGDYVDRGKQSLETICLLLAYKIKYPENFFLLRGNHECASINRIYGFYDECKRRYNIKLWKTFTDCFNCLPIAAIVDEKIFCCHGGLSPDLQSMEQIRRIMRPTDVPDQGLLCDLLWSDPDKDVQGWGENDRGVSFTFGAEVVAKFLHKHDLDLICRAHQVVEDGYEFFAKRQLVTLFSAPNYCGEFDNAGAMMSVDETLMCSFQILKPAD

Consider HIPR[pS]PYKFPSSPLRKKCCFHCQVCFITK (cysteine pairing not given here) [pRb-Tat hybrid peptide], for which the koff was found to be 0.00394 s⁻¹.
